Ten molecules from patent US20220048967A1 (published 2022) can be followed below.

Numbering of substitutions follows the chain as printed. Numbered stars: 1 amine (or outer) side, 2 acyl side, 3 side chain; on linkers, the order of the positions; unused ones are H or OH. Square brackets hold non-standard residues; d marks the D form. Side chains are listed from the residue outwards. Ends that are not written are not given here. * marks the point of attachment. C20 diacid = O=C(O)CCCCCCCCCCCCCCCCCCC(=O)*; γGlu = O=C(O)[C@H](CCC(=O)[*:2])N[*:1]; AEEA = NCCOCCOCC(=O)O; Aib = CC(C)(N)C(=O)O

One assay addresses T1, human GIP receptor (human, UniProt P48546 22-466).
T1 sequence (looked up): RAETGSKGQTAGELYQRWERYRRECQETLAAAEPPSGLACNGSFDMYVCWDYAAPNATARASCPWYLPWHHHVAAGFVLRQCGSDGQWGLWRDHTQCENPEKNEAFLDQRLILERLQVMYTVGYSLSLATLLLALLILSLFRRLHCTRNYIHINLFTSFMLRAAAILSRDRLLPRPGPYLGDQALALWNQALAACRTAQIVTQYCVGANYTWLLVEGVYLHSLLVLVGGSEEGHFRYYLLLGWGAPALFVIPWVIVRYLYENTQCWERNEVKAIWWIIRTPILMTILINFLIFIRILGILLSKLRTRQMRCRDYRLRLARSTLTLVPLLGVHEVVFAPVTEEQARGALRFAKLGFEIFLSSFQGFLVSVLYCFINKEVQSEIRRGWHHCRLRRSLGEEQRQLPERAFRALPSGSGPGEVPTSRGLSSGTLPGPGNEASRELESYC
The assay is described as follows: cell-based or functional assay.

Another assay has as its target human GLP-1 receptor (human, UniProt P43220 24-463). Kind of assay: cell-based or functional assay.

B1: Example 70 (peptide)
peptide: Y[Aib]EGTFTSDK([AEEA-AEEA-γGlu-C20 diacid])SILLDKIAQ[Aib]AFIEYLIEGG-NH2
modifications: N-terminus assumed
SMILES: CC[C@H](C)[C@H](NC(=O)[C@H](CCCCN)NC(=O)[C@H](CC(=O)O)NC(=O)[C@H](CC(C)C)NC(=O)[C@H](CC(C)C)NC(=O)[C@@H](NC(=O)[C@H](CO)NC(=O)[C@H](CCCCNC(=O)COCCOCCNC(=O)COCCOCCNC(=O)CC[C@H](NC(=O)CCCCCCCCCCCCCCCCCCC(=O)O)C(=O)O)NC(=O)[C@H](CC(=O)O)NC(=O)[C@H](CO)NC(=O)[C@@H](NC(=O)[C@H](Cc1ccccc1)NC(=O)[C@@H](NC(=O)CNC(=O)[C@H](CCC(=O)O)NC(=O)C(C)(C)NC(=O)[C@@H](N)Cc1ccc(O)cc1)[C@@H](C)O)[C@@H](C)O)[C@@H](C)CC)C(=O)N[C@@H](C)C(=O)N[C@@H](CCC(N)=O)C(=O)NC(C)(C)C(=O)N[C@@H](C)C(=O)N[C@@H](Cc1ccccc1)C(=O)N[C@H](C(=O)N[C@@H](CCC(=O)O)C(=O)N[C@@H](Cc1ccc(O)cc1)C(=O)N[C@@H](CC(C)C)C(=O)N[C@H](C(=O)N[C@@H](CCC(=O)O)C(=O)NCC(=O)NCC(N)=O)[C@@H](C)CC)[C@@H](C)CC
For the molecule B1, in the assay with human GIP receptor, the “hGIPR cAMP EC50 ratio” value was 0.351 and the “hGIPR cAMP Rel EC50” value was determined as 0.48 nM. In the assay with human GLP-1 receptor, the “hGLP1R cAMP EC50 ratio” value was 0.207 and the “hGLP1R cAMP Rel EC50” value turned out to be 0.283 nM.

B2: Example 50 (peptide)
peptide: Y[Aib]EGTFTSDYSILLDKK([AEEA-AEEA-γGlu-C20 diacid])AQ[Aib]AFIEYLIEGGPSSG-NH2
modifications: N-terminus assumed
SMILES: CC[C@H](C)[C@H](NC(=O)[C@H](CC(C)C)NC(=O)[C@H](Cc1ccc(O)cc1)NC(=O)[C@H](CCC(=O)O)NC(=O)[C@@H](NC(=O)[C@H](Cc1ccccc1)NC(=O)[C@H](C)NC(=O)C(C)(C)NC(=O)[C@H](CCC(N)=O)NC(=O)[C@H](C)NC(=O)[C@H](CCCCNC(=O)COCCOCCNC(=O)COCCOCCNC(=O)CC[C@H](NC(=O)CCCCCCCCCCCCCCCCCCC(=O)O)C(=O)O)NC(=O)[C@H](CCCCN)NC(=O)[C@H](CC(=O)O)NC(=O)[C@H](CC(C)C)NC(=O)[C@H](CC(C)C)NC(=O)[C@@H](NC(=O)[C@H](CO)NC(=O)[C@H](Cc1ccc(O)cc1)NC(=O)[C@H](CC(=O)O)NC(=O)[C@H](CO)NC(=O)[C@@H](NC(=O)[C@H](Cc1ccccc1)NC(=O)[C@@H](NC(=O)CNC(=O)[C@H](CCC(=O)O)NC(=O)C(C)(C)NC(=O)[C@@H](N)Cc1ccc(O)cc1)[C@@H](C)O)[C@@H](C)O)[C@@H](C)CC)[C@@H](C)CC)C(=O)N[C@@H](CCC(=O)O)C(=O)NCC(=O)NCC(=O)N1CCC[C@H]1C(=O)N[C@@H](CO)C(=O)N[C@@H](CO)C(=O)NCC(N)=O
As to B2, in the assay with human GIP receptor, the “hGIPR cAMP EC50 ratio” value turned out to be 1.96 and the “hGIPR cAMP Rel EC50” value stood at 0.0794 nM. In addition, in the assay with human GLP-1 receptor, the “hGLP1R cAMP EC50 ratio” value was 0.675 and the “hGLP1R cAMP Rel EC50” value worked out at 0.0961 nM.

B3: Example 58 (peptide)
peptide: Y[Aib]EGTFTSDYSSLLDKK([AEEA-AEEA-γGlu-C20 diacid])AQ[Aib]AFIEYLIEGGPSSGAPPPS-NH2
modifications: N-terminus assumed
SMILES: CC[C@H](C)[C@H](NC(=O)[C@H](CC(C)C)NC(=O)[C@H](Cc1ccc(O)cc1)NC(=O)[C@H](CCC(=O)O)NC(=O)[C@@H](NC(=O)[C@H](Cc1ccccc1)NC(=O)[C@H](C)NC(=O)C(C)(C)NC(=O)[C@H](CCC(N)=O)NC(=O)[C@H](C)NC(=O)[C@H](CCCCNC(=O)COCCOCCNC(=O)COCCOCCNC(=O)CC[C@H](NC(=O)CCCCCCCCCCCCCCCCCCC(=O)O)C(=O)O)NC(=O)[C@H](CCCCN)NC(=O)[C@H](CC(=O)O)NC(=O)[C@H](CC(C)C)NC(=O)[C@H](CC(C)C)NC(=O)[C@H](CO)NC(=O)[C@H](CO)NC(=O)[C@H](Cc1ccc(O)cc1)NC(=O)[C@H](CC(=O)O)NC(=O)[C@H](CO)NC(=O)[C@@H](NC(=O)[C@H](Cc1ccccc1)NC(=O)[C@@H](NC(=O)CNC(=O)[C@H](CCC(=O)O)NC(=O)C(C)(C)NC(=O)[C@@H](N)Cc1ccc(O)cc1)[C@@H](C)O)[C@@H](C)O)[C@@H](C)CC)C(=O)N[C@@H](CCC(=O)O)C(=O)NCC(=O)NCC(=O)N1CCC[C@H]1C(=O)N[C@@H](CO)C(=O)N[C@@H](CO)C(=O)NCC(=O)N[C@@H](C)C(=O)N1CCC[C@H]1C(=O)N1CCC[C@H]1C(=O)N1CCC[C@H]1C(=O)N[C@@H](CO)C(N)=O
Regarding B3, in the assay with human GIP receptor, the “hGIPR cAMP EC50 ratio” value came to 0.522 and the “hGIPR cAMP Rel EC50” value is 0.266 nM. Moreover, in the assay with human GLP-1 receptor, the “hGLP1R cAMP EC50 ratio” value was 0.378 and the “hGLP1R cAMP Rel EC50” value was 0.18 nM.

B4: Example 51 (peptide)
peptide: Y[Aib]EGTFTSDYSILLDKK([AEEA-AEEA-γGlu-C20 diacid])AQ[Aib]AFIEYLIEGG-NH2
modifications: N-terminus assumed
SMILES: CC[C@H](C)[C@H](NC(=O)[C@H](CC(C)C)NC(=O)[C@H](Cc1ccc(O)cc1)NC(=O)[C@H](CCC(=O)O)NC(=O)[C@@H](NC(=O)[C@H](Cc1ccccc1)NC(=O)[C@H](C)NC(=O)C(C)(C)NC(=O)[C@H](CCC(N)=O)NC(=O)[C@H](C)NC(=O)[C@H](CCCCNC(=O)COCCOCCNC(=O)COCCOCCNC(=O)CC[C@H](NC(=O)CCCCCCCCCCCCCCCCCCC(=O)O)C(=O)O)NC(=O)[C@H](CCCCN)NC(=O)[C@H](CC(=O)O)NC(=O)[C@H](CC(C)C)NC(=O)[C@H](CC(C)C)NC(=O)[C@@H](NC(=O)[C@H](CO)NC(=O)[C@H](Cc1ccc(O)cc1)NC(=O)[C@H](CC(=O)O)NC(=O)[C@H](CO)NC(=O)[C@@H](NC(=O)[C@H](Cc1ccccc1)NC(=O)[C@@H](NC(=O)CNC(=O)[C@H](CCC(=O)O)NC(=O)C(C)(C)NC(=O)[C@@H](N)Cc1ccc(O)cc1)[C@@H](C)O)[C@@H](C)O)[C@@H](C)CC)[C@@H](C)CC)C(=O)N[C@@H](CCC(=O)O)C(=O)NCC(=O)NCC(N)=O
For the molecule B4, in the assay with human GIP receptor, the “hGIPR cAMP EC50 ratio” value was 1.69 and the “hGIPR cAMP Rel EC50” value worked out at 0.096 nM. Moreover, in the assay with human GLP-1 receptor, the “hGLP1R cAMP EC50 ratio” value was 0.426 and the “hGLP1R cAMP Rel EC50” value was found to be 0.153 nM.

B5: Example 57 (peptide)
peptide: YXEGTXTSDYSILLDKKAQXAFIEYLIEGGPSSGAPPPS
modifications: Aib2; αMeF6; K17((2-[2-(2-Amino-ethoxy)-ethoxy]-acetyl)2-(γ-Glu)-CO-(CH2)18-CO2H); Aib20; C-terminal NH2
In the case of B5, in the assay with human GIP receptor, the “hGIPR cAMP EC50 ratio” value turned out to be 1.74 and the “hGIPR cAMP Rel EC50” value was 0.0849 nM. For the same molecule, in the assay with human GLP-1 receptor, the “hGLP1R cAMP EC50 ratio” value was found to be 0.996 and the “hGLP1R cAMP Rel EC50” value was found to be 0.0668 nM.

B6: Example 66 (peptide)
peptide: B5 peptide with X6F, L13X, K16E, I27L
modifications: not fully specified; Aib2; αMeF13 as printed (likely αMeL13); K17((2-[2-(2-Amino-ethoxy)-ethoxy]-acetyl)2-(γ-Glu)-CO-(CH2)18-CO2H); Aib20; C-terminal NH2
With B6, in the assay with human GIP receptor, the “hGIPR cAMP EC50 ratio” value is 1.89 and the “hGIPR cAMP Rel EC50” value amounted to 0.0743 nM. Moreover, in the assay with human GLP-1 receptor, the “hGLP1R cAMP EC50 ratio” value is 0.255 and the “hGLP1R cAMP Rel EC50” value came out at 0.285 nM.

B7: Example 67 (peptide)
peptide: B5 peptide with X6F, F22X
modifications: Aib2; K17((2-[2-(2-Amino-ethoxy)-ethoxy]-acetyl)2-(γ-Glu)-CO-(CH2)18-CO2H); Aib20; αMeF22; C-terminal NH2
On to B7, for which, in the assay with human GIP receptor, the “hGIPR cAMP EC50 ratio” value amounted to 1.61 and the “hGIPR cAMP Rel EC50” value is 0.0913 nM. Moreover, in the assay with human GLP-1 receptor, the “hGLP1R cAMP EC50 ratio” value amounted to 0.123 and the “hGLP1R cAMP Rel EC50” value is 0.447 nM.

B8: Example 68 (peptide)
peptide: B5 peptide with X6F, S11X
modifications: Aib2; αMeS11; K17((2-[2-(2-Amino-ethoxy)-ethoxy]-acetyl)2-(γ-Glu)-CO-(CH2)18-CO2H); Aib20; C-terminal NH2
In the case of B8, in the assay with human GIP receptor, the “hGIPR cAMP EC50 ratio” value amounted to 1.67 and the “hGIPR cAMP Rel EC50” value was 0.0881 nM. In the assay with human GLP-1 receptor, the “hGLP1R cAMP EC50 ratio” value came out at 0.354 and the “hGLP1R cAMP Rel EC50” value was 0.153 nM.

B9: Example 69 (peptide)
peptide: B5 peptide with L13X
modifications: not fully specified; Aib2; αMeF6; αMeF13 as printed (likely αMeL13); K17((2-[2-(2-Amino-ethoxy)-ethoxy]-acetyl)2-(γ-Glu)-CO-(CH2)18-CO2H); Aib20; C-terminal NH2
As to B9, in the assay with human GIP receptor, the “hGIPR cAMP EC50 ratio” value is 2.73 and the “hGIPR cAMP Rel EC50” value turned out to be 0.0712 nM. Besides, in the assay with human GLP-1 receptor, the “hGLP1R cAMP EC50 ratio” value amounted to 0.85 and the “hGLP1R cAMP Rel EC50” value came to 0.0844 nM.

B10: Example 71 (peptide)
peptide: Y[Aib]EGTFTSDYSILK([AEEA-AEEA-γGlu-C20 diacid])DKIAQ[Aib]AFIEYLIEGG-NH2
modifications: N-terminus assumed
SMILES: CC[C@H](C)[C@H](NC(=O)[C@H](CCCCN)NC(=O)[C@H](CC(=O)O)NC(=O)[C@H](CCCCNC(=O)COCCOCCNC(=O)COCCOCCNC(=O)CC[C@H](NC(=O)CCCCCCCCCCCCCCCCCCC(=O)O)C(=O)O)NC(=O)[C@H](CC(C)C)NC(=O)[C@@H](NC(=O)[C@H](CO)NC(=O)[C@H](Cc1ccc(O)cc1)NC(=O)[C@H](CC(=O)O)NC(=O)[C@H](CO)NC(=O)[C@@H](NC(=O)[C@H](Cc1ccccc1)NC(=O)[C@@H](NC(=O)CNC(=O)[C@H](CCC(=O)O)NC(=O)C(C)(C)NC(=O)[C@@H](N)Cc1ccc(O)cc1)[C@@H](C)O)[C@@H](C)O)[C@@H](C)CC)C(=O)N[C@@H](C)C(=O)N[C@@H](CCC(N)=O)C(=O)NC(C)(C)C(=O)N[C@@H](C)C(=O)N[C@@H](Cc1ccccc1)C(=O)N[C@H](C(=O)N[C@@H](CCC(=O)O)C(=O)N[C@@H](Cc1ccc(O)cc1)C(=O)N[C@@H](CC(C)C)C(=O)N[C@H](C(=O)N[C@@H](CCC(=O)O)C(=O)NCC(=O)NCC(N)=O)[C@@H](C)CC)[C@@H](C)CC
As for B10, in the assay with human GIP receptor, the “hGIPR cAMP EC50 ratio” value turned out to be 1.02 and the “hGIPR cAMP Rel EC50” value turned out to be 0.166 nM. In the assay with human GLP-1 receptor, the “hGLP1R cAMP EC50 ratio” value came out at 0.0604 and the “hGLP1R cAMP Rel EC50” value came to 1.02 nM.
